T1: mouse FcγRII (mouse, UniProt P08101 30-210)
T1 construct: also called mFcγRII; mFcgRII
T1 sequence: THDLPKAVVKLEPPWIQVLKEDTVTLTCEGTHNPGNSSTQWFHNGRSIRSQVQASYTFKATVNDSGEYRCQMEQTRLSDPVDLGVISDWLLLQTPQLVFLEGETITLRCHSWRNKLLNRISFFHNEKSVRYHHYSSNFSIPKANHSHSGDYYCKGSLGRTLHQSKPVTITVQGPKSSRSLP

T2: mouse FcγRIII (mouse, UniProt P08508 31-215)
T2 construct: also called mFcγRIII; mFcgRIII
T2 chain: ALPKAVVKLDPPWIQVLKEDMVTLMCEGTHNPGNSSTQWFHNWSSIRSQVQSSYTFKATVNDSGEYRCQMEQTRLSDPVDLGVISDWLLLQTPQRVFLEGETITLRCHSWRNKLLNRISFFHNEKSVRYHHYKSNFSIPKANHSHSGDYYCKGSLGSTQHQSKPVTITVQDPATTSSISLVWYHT


Columns and labels:
mouse FcγRII = biological target: T1, mouse FcγRII; test: SPR Biacore 4000, KD ratio
Method: (§1) Each altered antibody was analyzed for its interaction with each Fcγ receptor prepared above using Biacore T100 (GE Healthcare Japan Corp.), Biacore T200 (GE Healthcare Japan Corp.), Biacore A100, or Biacore 4000. The running buffer used was HBS-EP+ (GE Healthcare Japan Corp.). The assay temperature was set to 25° C. The sensor chips used were chips prepared by immobilizing Protein L (ACTIGEN or BioVision) onto Series S Sensor Chip CM5 (GE Healthcare Japan Corp.) or Series S Sensor Chip CM4 (GE Healthcare Japan Corp.) by the amine coupling method.
(§2) In order to calculate the KD value of each altered antibody for FcγR, kinetic analysis was conducted according to the following method: first, the antibody of interest was captured onto any of these chips and allowed to interact with mFcγR diluted with a running buffer. For the obtained sensorgram, the assay results were globally fit into the 1:1 Langmuir binding model using Biacore Evaluation Software to calculate an association rate constant ka (L/mol/s) and a dissociation rate constant kd (1/s). From these values, the dissociation constant KD (mol/L) was calculated.

mouse FcγRIII = biological target: T2, mouse FcγRIII; test: SPR Biacore 4000, KD ratio
Method: as §1, §2

relative mFcγRII-binding activity (mIgG1 = 1) (mouse FcγRII) [fold] | relative mFcγRIII-binding activity (mIgG1 = 1) (mouse FcγRIII) [fold] | Binder
6.19 | 2.42 | MB129 (antibody, mouse IgG1, kappa, copies: 2 + 2) heavy: QVQLQESGPGLVKPSETLSLTCAVSGHSISHDHAWSWVRQPPGEGLEWIGFISYSGITNYNPSLQGRVTISRDNSKNTLYLQMNSLRAEDTAVYYCARSLARTTAMDYWGEGTLVTVSSAKTTPPSVYPLAPGSAAQTNSMVTLGCLVKGYFPEPVTVTWNSGSLSSGVHTFPAVLQSDLYTLSSSVTVPSSTWPSETVTCNVAHPASSTKVDKKIVPRDCGCKPCICTVPEVSSEFIFPPKPKDVLTITLTPKVTCVVVDISKDDPEVQFSWFVDDVEVHTAQTQPREEQFNSTFRSVSELPIMHQDWLNGKEFKCRVNSAAFPAPIEKTISKTKGRPKAPQVYTIPPPKEQMAKDKVSLTCMITDFFPEDITVEWQWNGQPAENYKNTQPIMDTDGSYFVYSKLNVQKSNWEAGNTFTCSVLHEGLHNHHTEKSLSHSPGK light: not shown
1.4 | 1.2 | MB162 (antibody, mouse IgG1, kappa, copies: 2 + 2) heavy: QVQLQESGPGLVKPSETLSLTCAVSGHSISHDHAWSWVRQPPGEGLEWIGFISYSGITNYNPSLQGRVTISRDNSKNTLYLQMNSLRAEDTAVYYCARSLARTTAMDYWGEGTLVTVSSAKTTPPSVYPLAPGSAAQTNSMVTLGCLVKGYFPEPVTVTWNSGSLSSGVHTFPAVLQSDLYTLSSSVTVPSSTWPSETVTCNVAHPASSTKVDKKIVPRDCGCKPCICTVPEVSSVYIFPPKPKDVLTITLTPKVTCVVVDISKDDPEVQFSWFVDDVEVHTAQTQPREEQFNSTFRSVSELPIMHQDWLNGKEFKCRVNSAAFPAPIEKTISKTKGRPKAPQVYTIPPPKEQMAKDKVSLTCMITDFFPEDITVEWQWNGQPAENYKNTQPIMDTDGSYFVYSKLNVQKSNWEAGNTFTCSVLHEGLHNHHTEKSLSHSPGK light: not shown
7.42 | 6.32 | MB143 (antibody, mouse IgG1, kappa, copies: 2 + 2) heavy: QVQLQESGPGLVKPSETLSLTCAVSGHSISHDHAWSWVRQPPGEGLEWIGFISYSGITNYNPSLQGRVTISRDNSKNTLYLQMNSLRAEDTAVYYCARSLARTTAMDYWGEGTLVTVSSAKTTPPSVYPLAPGSAAQTNSMVTLGCLVKGYFPEPVTVTWNSGSLSSGVHTFPAVLQSDLYTLSSSVTVPSSTWPSETVTCNVAHPASSTKVDKKIVPRDCGCKPCICTVPEVSSWFIFPPKPKDVLTITLTPKVTCVVVDISKDDPEVQFSWFVDDVEVHTAQTQPREEQFNSTFRSVSELPIMHQDWLNGKEFKCRVNSAAFPAPIEKTISKTKGRPKAPQVYTIPPPKEQMAKDKVSLTCMITDFFPEDITVEWQWNGQPAENYKNTQPIMDTDGSYFVYSKLNVQKSNWEAGNTFTCSVLHEGLHNHHTEKSLSHSPGK light: not shown
1.47 | 1.13 | MB161 (antibody, mouse IgG1, kappa, copies: 2 + 2) heavy: QVQLQESGPGLVKPSETLSLTCAVSGHSISHDHAWSWVRQPPGEGLEWIGFISYSGITNYNPSLQGRVTISRDNSKNTLYLQMNSLRAEDTAVYYCARSLARTTAMDYWGEGTLVTVSSAKTTPPSVYPLAPGSAAQTNSMVTLGCLVKGYFPEPVTVTWNSGSLSSGVHTFPAVLQSDLYTLSSSVTVPSSTWPSETVTCNVAHPASSTKVDKKIVPRDCGCKPCICTVPEVSSVWIFPPKPKDVLTITLTPKVTCVVVDISKDDPEVQFSWFVDDVEVHTAQTQPREEQFNSTFRSVSELPIMHQDWLNGKEFKCRVNSAAFPAPIEKTISKTKGRPKAPQVYTIPPPKEQMAKDKVSLTCMITDFFPEDITVEWQWNGQPAENYKNTQPIMDTDGSYFVYSKLNVQKSNWEAGNTFTCSVLHEGLHNHHTEKSLSHSPGK light: not shown
1.49 | 1.23 | MB251 (antibody, mouse IgG1, kappa, copies: 2 + 2) heavy: QVQLQESGPGLVKPSETLSLTCAVSGHSISHDHAWSWVRQPPGEGLEWIGFISYSGITNYNPSLQGRVTISRDNSKNTLYLQMNSLRAEDTAVYYCARSLARTTAMDYWGEGTLVTVSSAKTTPPSVYPLAPGSAAQTNSMVTLGCLVKGYFPEPVTVTWNSGSLSSGVHTFPAVLQSDLYTLSSSVTVPSSTWPSETVTCNVAHPASSTKVDKKIVPRDCGCKPCICTVPEVSSVFIFPPKPKDVLTITLTPKVTCVVVDISKDDPEVQFSWFVDDVEVHTAQTQPREEQWNSTFRSVSELPIMHQDWLNGKEFKCRVNSAAFPAPIEKTISKTKGRPKAPQVYTIPPPKEQMAKDKVSLTCMITDFFPEDITVEWQWNGQPAENYKNTQPIMDTDGSYFVYSKLNVQKSNWEAGNTFTCSVLHEGLHNHHTEKSLSHSPGK light: not shown
2.11 | 1.81 | MB261 (antibody, mouse IgG1, kappa, copies: 2 + 2) heavy: QVQLQESGPGLVKPSETLSLTCAVSGHSISHDHAWSWVRQPPGEGLEWIGFISYSGITNYNPSLQGRVTISRDNSKNTLYLQMNSLRAEDTAVYYCARSLARTTAMDYWGEGTLVTVSSAKTTPPSVYPLAPGSAAQTNSMVTLGCLVKGYFPEPVTVTWNSGSLSSGVHTFPAVLQSDLYTLSSSVTVPSSTWPSETVTCNVAHPASSTKVDKKIVPRDCGCKPCICTVPEVSSVFIFPPKPKDVLTITLTPKVTCVVVDISKDDPEVQFSWFVDDVEVHTAQTQPREEQFNLTFRSVSELPIMHQDWLNGKEFKCRVNSAAFPAPIEKTISKTKGRPKAPQVYTIPPPKEQMAKDKVSLTCMITDFFPEDITVEWQWNGQPAENYKNTQPIMDTDGSYFVYSKLNVQKSNWEAGNTFTCSVLHEGLHNHHTEKSLSHSPGK light: not shown
1.48 | 1.19 | MB199 (antibody, mouse IgG1, kappa, copies: 2 + 2) heavy: QVQLQESGPGLVKPSETLSLTCAVSGHSISHDHAWSWVRQPPGEGLEWIGFISYSGITNYNPSLQGRVTISRDNSKNTLYLQMNSLRAEDTAVYYCARSLARTTAMDYWGEGTLVTVSSAKTTPPSVYPLAPGSAAQTNSMVTLGCLVKGYFPEPVTVTWNSGSLSSGVHTFPAVLQSDLYTLSSSVTVPSSTWPSETVTCNVAHPASSTKVDKKIVPRDCGCKPCICTVPEVSSVFIFPPKPKDVLTITLTPKVTCVVVDIAKDDPEVQFSWFVDDVEVHTAQTQPREEQFNSTFRSVSELPIMHQDWLNGKEFKCRVNSAAFPAPIEKTISKTKGRPKAPQVYTIPPPKEQMAKDKVSLTCMITDFFPEDITVEWQWNGQPAENYKNTQPIMDTDGSYFVYSKLNVQKSNWEAGNTFTCSVLHEGLHNHHTEKSLSHSPGK light: not shown
1.16 | 1 | MB188 (antibody, mouse IgG1, kappa, copies: 2 + 2) heavy: QVQLQESGPGLVKPSETLSLTCAVSGHSISHDHAWSWVRQPPGEGLEWIGFISYSGITNYNPSLQGRVTISRDNSKNTLYLQMNSLRAEDTAVYYCARSLARTTAMDYWGEGTLVTVSSAKTTPPSVYPLAPGSAAQTNSMVTLGCLVKGYFPEPVTVTWNSGSLSSGVHTFPAVLQSDLYTLSSSVTVPSSTWPSETVTCNVAHPASSTKVDKKIVPRDCGCKPCICTVPEVSSVFIFPPKPKDVLTITLTPKVTCVVVDLSKDDPEVQFSWFVDDVEVHTAQTQPREEQFNSTFRSVSELPIMHQDWLNGKEFKCRVNSAAFPAPIEKTISKTKGRPKAPQVYTIPPPKEQMAKDKVSLTCMITDFFPEDITVEWQWNGQPAENYKNTQPIMDTDGSYFVYSKLNVQKSNWEAGNTFTCSVLHEGLHNHHTEKSLSHSPGK light: not shown
2.12 | 1.39 | MB132 (antibody, mouse IgG1, kappa, copies: 2 + 2) heavy: QVQLQESGPGLVKPSETLSLTCAVSGHSISHDHAWSWVRQPPGEGLEWIGFISYSGITNYNPSLQGRVTISRDNSKNTLYLQMNSLRAEDTAVYYCARSLARTTAMDYWGEGTLVTVSSAKTTPPSVYPLAPGSAAQTNSMVTLGCLVKGYFPEPVTVTWNSGSLSSGVHTFPAVLQSDLYTLSSSVTVPSSTWPSETVTCNVAHPASSTKVDKKIVPRDCGCKPCICTVPEVSSHFIFPPKPKDVLTITLTPKVTCVVVDISKDDPEVQFSWFVDDVEVHTAQTQPREEQFNSTFRSVSELPIMHQDWLNGKEFKCRVNSAAFPAPIEKTISKTKGRPKAPQVYTIPPPKEQMAKDKVSLTCMITDFFPEDITVEWQWNGQPAENYKNTQPIMDTDGSYFVYSKLNVQKSNWEAGNTFTCSVLHEGLHNHHTEKSLSHSPGK light: not shown
1.54 | 1.2 | MB139 (antibody, mouse IgG1, kappa, copies: 2 + 2) heavy: QVQLQESGPGLVKPSETLSLTCAVSGHSISHDHAWSWVRQPPGEGLEWIGFISYSGITNYNPSLQGRVTISRDNSKNTLYLQMNSLRAEDTAVYYCARSLARTTAMDYWGEGTLVTVSSAKTTPPSVYPLAPGSAAQTNSMVTLGCLVKGYFPEPVTVTWNSGSLSSGVHTFPAVLQSDLYTLSSSVTVPSSTWPSETVTCNVAHPASSTKVDKKIVPRDCGCKPCICTVPEVSSQFIFPPKPKDVLTITLTPKVTCVVVDISKDDPEVQFSWFVDDVEVHTAQTQPREEQFNSTFRSVSELPIMHQDWLNGKEFKCRVNSAAFPAPIEKTISKTKGRPKAPQVYTIPPPKEQMAKDKVSLTCMITDFFPEDITVEWQWNGQPAENYKNTQPIMDTDGSYFVYSKLNVQKSNWEAGNTFTCSVLHEGLHNHHTEKSLSHSPGK light: not shown

From patent US20150203577A1 (Chugai, published 2015)
